The values that follow come from IntAct's records for PubMed 16739988.

First the molecules themselves.
B1: Gem-associated protein 5 (Homo sapiens), Q8TEQ6 (parent)
chain: MGQEPRTLPPSPNWYCARCSDAVPGGLFGFAARTSVFLVRVGPGAGESPGTPPFRVIGELVGHTERVSGFTFSHHPGQYNLCATSSDDGTVKIWDVETKTVVTEHALHQHTISTLHWSPRVKDLIVSGDEKGVVFCYWFNRNDSQHLFIEPRTIFCLTCSPHHEDLVAIGYKDGIVVIIDISKKGEVIHRLRGHDDEIHSIAWCPLPGEDCLSINQEETSEEAEITNGNAVAQAPVTKGCYLATGSKDQTIRIWSCSRGRGVMILKLPFLKRRGGGIDPTVKERLWLTLHWPSNQPTQLVSSCFGGELLQWDLTQSWRRKYTLFSASSEGQNHSRIVFNLCPLQTEDDKQLLLSTSMDRDVKCWDIATLECSWTLPSLGGFAYSLAFSSVDIGSLAIGVGDGMIRVWNTLSIKNNYDVKNFWQGVKSKVTALCWHPTKEGCLAFGTDDGKVGLYDTYSNKPPQISSTYHKKTVYTLAWGPPVPPMSLGGEGDRPSLALYSCGGEGIVLQHNPWKLSGEAFDINKLIRDTNSIKYKLPVHTEISWKADGKIMALGNEDGSIEIFQIPNLKLICTIQQHHKLVNTISWHHEHGSQPELSYLMASGSNNAVIYVHNLKTVIESSPESPVTITEPYRTLSGHTAKITSVAWSPHHDGRLVSASYDGTAQVWDALREEPLCNFRGHRGRLLCVAWSPLDPDCIYSGADDFCVHKWLTSMQDHSRPPQGKKSIELEKKRLSQPKAKPKKKKKPTLRTPVKLESIDGNEEESMKENSGPVENGVSDQEGEEQAREPELPCGLAPAVSREPVICTPVSSGFEKSKVTINNKVILLKKEPPKEKPETLIKKRKARSLLPLSTSLDHRSKEELHQDCLVLATAKHSRELNEDVSADVEERFHLGLFTDRATLYRMIDIEGKGHLENGHPELFHQLMLWKGDLKGVLQTAAERGELTDNLVAMAPAAGYHVWLWAVEAFAKQLCFQDQYVKAASHLLSIHKVYEAVELLKSNHFYREAIAIAKARLRPEDPVLKDLYLSWGTVLERDGHYAVAAKCYLGATCAYDAAKVLAKKGDAASLRTAAELAAIVGEDELSASLALRCAQELLLANNWVGAQEALQLHESLQGQRLVFCLLELLSRHLEEKQLSEGKSSSSYHTWNTGTEGPFVERVTAVWKSIFSLDTPEQYQEAFQKLQNIKYPSATNNTPAKQLLLHICHDLTLAVLSQQMASWDEAVQALLRAVVRSYDSGSFTIMQEVYSAFLPDGCDHLRDKLGDHQSPATPAFKSLEAFFLYGRLYEFWWSLSRPCPNSSVWVRAGHRTLSVEPSQQLDTASTEETDPETSQPEPNRPSELDLRLTEEGERMLSTFKELFSEKHASLQNSQRTVAEVQETLAEMIRQHQKSQLCKSTANGPDKNEPEVEAEQPLCSSQSQCKEEKNEPLSLPELTKRLTEANQRMAKFPESIKAWPFPDVLECCLVLLLIRSHFPGCLAQEMQQQAQELLQKYGNTKTYRRHCQTFCM

In this assay the parent is B1. Particulars: with if4e_human EIF4E.
Consider L265A, for which the “effect of a mutation on the interaction” value is given as “decreasing interaction”.
The value for Y992A was “decreasing interaction”.
As for L997A;L998A, the “effect of a mutation on the interaction” value is “decreasing interaction”.
The value for L270A;K271A was “decreasing interaction”.
